Experiment [1] addresses 3T3 fibroblast bombesin receptors (murine (3T3 murine fibroblasts)) (UniProt P21729).
For experiment [2] the target is unchanged. As to the kind of experiment: inhibition of [125I]GRP binding to 3T3 cell membranes.
The next experiment concerns the target T1, bombesin receptor (Rattus norvegicus, UniProt P52500).
T1 construct: displace ^125I-labeled bombesin from rat pancreatic acini cells; from tissue; host or cells: rat pancreatic acini cells
As to the kind of experiment: Displacement of 125I-labeled bombesin from rat pancreatic acini cells. Type of experiment: binding. The settings on record: read-out: half-maximal effective dose, displacement of 125I-labeled bombesin. From the text: D-Phe-Gln-Trp-Ala-Val-N-methyl-D-Ala-His-Leu-methylester and D-F5-Phe-Gln-Trp-Ala-Val-D-Ala-His-Leu-methylester were examined for their abilities to displace ^125I-labeled bombesin from rat pancreatic acini cells and to inhibit amylase release from these cells produced by bombesin itself.
(In a radioligand displacement assay an active substance lowers the binding of a labelled ligand.)

The next experiment has as its target swiss 3T3 cells (Mus musculus, UniProt P21729). As to the kind of experiment: Bombesin-stimulated [3H]thymidine uptake by cultured 3T3 cells. Type of experiment: cell-based, murine. The settings on record: Table 1. On the procedure: Phase 1—3T3 Peptide Stimulated [^3H] Thymidine Uptake Assay
Cell Culture. Stock cultures of swiss 3T3 cells are grown in Dulbecco's Modified Eagles Medium (DMEM) supplemented with 10% fetal calf serum in humidified atmosphere of 10% CO2/90% air at 37° C. For experimental use, the cells are seeded into 24-well cluster trays and used four days after she last change of medium. The cells are arrested in the G1/G0 phase of the cell cycle by changing to serum-free DMEM 24 hours prior to the thymidine uptake assay.
Assay of DNA Synthesis. The cells are washed twice with 1 ml aliquots of DMEM (-serum) then incubated with DMEM (-serum), 0.5 μM [methyl-^3H] thymidine (20 Ci/mmole, New England Nuclear), bombesin (3 nM), and initially four concentrations of the test compounds (1, 10, 100, 1000 nM) in a final volume of 1.0 ml. After 28 hours at 37° C., [methyl-^3H] thymidine incorporation into acid-insoluble pools is assayed as follows. The cells are washed twice with ice-cold 0.9% NaCl (1 ml aliquots), and acid soluble radioactivity is removed by a 30 min. (4° C.) incubation with 5% trichloroacetic acid (TCA). The cultures are then washed once (1 ml) with 95% ethanol and solubilized by a 30 min. incubation (1 ml) with 0.1N NaOH. The solubilized material is transferred to vials containing 10 ml ScintA (Packard), and the radioactivity is determined by liquid scintillation spectrometry.
(§1) A number of analogs of bombesin or GRP, each containing a non-peptide bond or a statine, AHPPA, or ACHPA, β-amino acid, or γ-amino acid residue, can be synthesized and tested in one or more of the above-described Phase 1-7 assays; the results of Phase 1 and 2 tests are given in Table 1 attached hereto. […] (3T3 GRP receptor and thymidine uptake data are expressed in IC50 (nM).) Table 1 also gives results for non-peptide bond-containing analogs of one other naturally-occurring peptide, Neuromedin C, whose C-terminal seven amino acids are similar to those of bombesin and GRP. (In Table 1, “Litorin” indicates a 9 residue peptide analog or its derivative, whereas “Neuromedin C” indicates a 10 residue analog or its derivative.)

Experiment [3] addresses T2, 3T3 fibroblast bombesin receptors (3T3 GRP receptor) (Mus musculus, UniProt P21729).
T2 construct: Membranes from various tissues (rat brain, rat pancreas, rat anterior pituitary, SCLC, 3T3 cells) are prepared by homogenization; endogenous in cells; host or cells: 3T3 fibroblasts (membrane preparation)
As to the kind of experiment: In vitro inhibition of [125I]GRP binding to 3T3 fibroblast bombesin receptors. The arrangement: species or system murine. The following applies: for activity in the 3T3 GRP receptor binding assay (in words): Table 1. As to the method:
Phase 4—In Vitro Inhibition of [^125I] Gastrin Releasing Peptide (GRP) Binding to Bombesin Receptors
Membranes from various tissues (rat brain, rat pancreas, rat anterior pituitary, SCLC, 3T3 cells) are prepared by homogenization in 50 mM TrisHCl containing 0.1% bovine serum albumin and 0.1 mg/ml bacitracin followed by two centrifugations (39,000×g×15 min., 4° C.) with an intermediate resuspension in-fresh buffer. For assay, aliquots […] are incubated with 0.5 nM [^125I]GRP (˜2000 Ci/mmol, Amersham Corp.) and various concentrations of the test compounds in a final volume of 0.5 ml. After a 30 minute incubation at 4° C., the binding reaction is terminated by rapid filtration through Whatman GF/C filters that have been pre-soaked in 0.3% aqueous polethyleneimine to reduce the level of nonspecific binding. The filters and tubes are washed three times with 4 ml aliquots of ice-cold buffer, and the radioactivity trapped on the filters is counted by gamma-spectrometry. Specific binding is defined as the total. [^125I]GRP bound minus that bound in the presence of 1000 nM. bombesin or a related peptide.
as §1

Experiment [4] addresses 3T3 fibroblast bombesin receptors (murine (3T3 murine fibroblasts), UniProt P21729). As to the kind of experiment: inhibition of [125I]GRP binding to 3T3 cell membranes.
The mark [5] stands for this setting: inhibition of [125I]GRP binding, 3T3 membranes, read-out: 3T3 GRP Receptor IC50.

Like-named read-outs stand apart in the source and are kept apart here. Non-standard residues stand in square brackets, D forms with d. Residues, ends and D or L forms follow the SMILES beside them. No end group written: not given here. *: point of attachment. dPhe(F5) = N[C@H](Cc1c(F)c(F)c(F)c(F)c1F)C(=O)O; X2 = CC(C)C[C@@H](CN[C@@H](CC(C)C)C(N)=O)N*; Sta = CC(C)C[C@H](N)[C@@H](O)CC(=O)O; pGlu = O=C1CC[C@@H](C(=O)O)N1; dNMeA = CN[C@H](C)C(=O)O

Chain of swiss 3T3 cells (P21729 whole entry): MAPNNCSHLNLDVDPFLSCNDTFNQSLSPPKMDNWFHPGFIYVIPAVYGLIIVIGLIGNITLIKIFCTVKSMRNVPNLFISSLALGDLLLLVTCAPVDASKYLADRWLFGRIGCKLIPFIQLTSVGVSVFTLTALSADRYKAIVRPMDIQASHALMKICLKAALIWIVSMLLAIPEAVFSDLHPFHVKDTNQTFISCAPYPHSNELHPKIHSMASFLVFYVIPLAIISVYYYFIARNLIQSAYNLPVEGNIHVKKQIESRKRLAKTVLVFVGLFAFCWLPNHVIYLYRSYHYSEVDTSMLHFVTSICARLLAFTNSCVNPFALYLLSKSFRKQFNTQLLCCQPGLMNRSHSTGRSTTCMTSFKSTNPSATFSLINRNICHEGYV
Chain of 3T3 fibroblast bombesin receptors (murine (3T3 murine fibroblasts)) (P21729 whole entry): as above
T2 sequence (P21729 whole entry): as above
T1 sequence (P52500 whole entry): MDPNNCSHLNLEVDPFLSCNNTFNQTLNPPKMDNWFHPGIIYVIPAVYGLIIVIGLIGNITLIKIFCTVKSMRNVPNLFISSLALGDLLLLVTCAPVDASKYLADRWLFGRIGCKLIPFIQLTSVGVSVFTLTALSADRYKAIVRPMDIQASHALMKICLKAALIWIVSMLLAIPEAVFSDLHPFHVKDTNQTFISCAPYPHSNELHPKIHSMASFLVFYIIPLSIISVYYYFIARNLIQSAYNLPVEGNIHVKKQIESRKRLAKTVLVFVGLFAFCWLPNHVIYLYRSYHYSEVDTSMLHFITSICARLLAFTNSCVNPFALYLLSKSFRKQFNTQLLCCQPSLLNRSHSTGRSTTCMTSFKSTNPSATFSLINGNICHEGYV

Turning to “BIM-26182, D-Cpa-Gln-Trp-Ala-Val-Gly-His-β-Leu-NH2 (Litorin analog) (peptide)”, the bombesin-stimulated [3H]Thymidine uptake, IC50 in experiment [1] was 4.77 nM. For the same molecule, the IC50 in experiment [2] was 0.88 nM.

Take `COC(=O)[C@H](CC(C)C)NC(=O)[C@H](Cc1c[nH]cn1)NC(=O)[C@@H](C)N(C)C(=O)[C@@H](NC(=O)[C@H](C)NC(=O)[C@H](Cc1c[nH]c2ccccc12)NC(=O)[C@H](CCC(N)=O)NC(=O)[C@H](N)Cc1ccccc1)C(C)C` [D-Phe-Gln-Trp-Ala-Val-N-methyl-D-Ala-His-Leu-methylester] (H-[dF]QWAV[dNMeA]HL-OMe): the IC50 on bombesin receptor was 5 to 10 nM.

For `CC(C)C[C@@H](CN[C@@H](CC(C)C)C(N)=O)NC(=O)[C@H](Cc1c[nH]cn1)NC(=O)[C@@H](C)NC(=O)[C@@H](NC(=O)[C@H](C)NC(=O)[C@H](Cc1c[nH]c2ccccc12)NC(=O)[C@H](Cc1c[nH]cn1)NC(=O)[C@@H](C)N)C(C)C` [BIM-26106, desGly-D-Ala-His-Trp-Ala-Val-D-ALa-His-Leuψ[CH2CH]Leu-NH2] (H-[dA]HWAV[dA]H-X2; N-terminus assumed), at swiss 3T3 cells, the “activity in the 3T3 thymidine uptake assay (in words)” value was “antagonists”. In experiment [3], the “activity in the 3T3 GRP receptor binding assay (in words)” value is listed as “antagonists”. For the same molecule, the IC50 in experiment [3] (setting [5]) was 401 nM.

On to `CC(C)C[C@@H](CN[C@@H](CC(C)C)C(N)=O)NC(=O)[C@H](Cc1c[nH]cn1)NC(=O)CNC(=O)[C@@H](NC(=O)[C@H](C)NC(=O)[C@H](Cc1c[nH]c2ccccc12)NC(=O)[C@H](Cc1c[nH]cn1)NC(=O)[C@H](CC(N)=O)NC(=O)CN)C(C)C` [BIM-26092, Gly-Asn-His-Trp-Ala-Val-Gly-His-Leuψ[CH2NH]Leu-NH2] (H-GNHWAVGH-X2), for which, on swiss 3T3 cells, the “activity in the 3T3 thymidine uptake assay (in words)” value is reported as “antagonists”. The “activity in the 3T3 GRP receptor binding assay (in words)” value in experiment [3] is given as “antagonists”.

In the case of `CC(C)C[C@@H](CN[C@@H](CC(C)C)C(N)=O)NC(=O)[C@H](Cc1c[nH]cn1)NC(=O)CNC(=O)[C@@H](NC(=O)[C@H](C)NC(=O)[C@H](Cc1c[nH]c2ccccc12)NC(=O)[C@H](Cc1c[nH]cn1)NC(=O)[C@H](N)Cc1ccccc1)C(C)C` [BIM-26107, D-Phe-His-Trp-Ala-Val-Gly-His-Leuψ[CH2NH]Leu-NH2] (H-[dF]HWAVGH-X2), at swiss 3T3 cells, the “activity in the 3T3 thymidine uptake assay (in words)” value is “antagonists”. Besides, in experiment [3], the “activity in the 3T3 GRP receptor binding assay (in words)” value was “antagonists”. Further, the IC50 in experiment [3] (setting [5]) was determined as 199 nM.

`COC(=O)[C@H](CC(C)C)NC(=O)[C@H](Cc1c[nH]cn1)NC(=O)[C@@H](C)NC(=O)[C@@H](NC(=O)[C@H](C)NC(=O)[C@H](Cc1c[nH]c2ccccc12)NC(=O)[C@H](CCC(N)=O)NC(=O)[C@H](N)Cc1c(F)c(F)c(F)c(F)c1F)C(C)C` [D-F5-Phe-Gln-Trp-Ala-Val-D-Ala-His-Leu-methylester] (H-[dPhe(F5)]QWAV[dA]HL-OMe): the IC50 at bombesin receptor is 5 to 10 nM.

The molecule “BIM-26136, D-Nal-Gln-Trp-Ala-Val-Gly-His-Leuψ[CH2NH]Phe-NH2 (Litorin analog) (peptide)” came in with a bombesin-stimulated [3H]Thymidine uptake, IC50 in experiment [1] of 3.3 nM. In experiment [2], this molecule displayed an IC50 of 1.4 nM.

Take `CC(C)C[C@@H](CN[C@@H](CC(C)C)C(N)=O)NC(=O)[C@H](Cc1c[nH]cn1)NC(=O)[C@@H](C)NC(=O)[C@@H](NC(=O)[C@H](C)NC(=O)[C@H](Cc1c[nH]c2ccccc12)NC(=O)[C@H](Cc1c[nH]cn1)NC(=O)[C@H](CC(N)=O)NC(=O)[C@@H](C)N)C(C)C` [BIM-26105, D-Ala-Asn-His-Trp-Ala-Val-D-ALa-His-Leuψ[CH2CH]Leu-NH2] (H-[dA]NHWAV[dA]H-X2; N-terminus assumed): the “activity in the 3T3 thymidine uptake assay (in words)” value at swiss 3T3 cells is “antagonists”. Further, in experiment [3], the IC50 is 107 nM and the “activity in the 3T3 GRP receptor binding assay (in words)” value is “antagonists”.

For the molecule “BIM-26114, D-Nal-Gln-Trp-Ala-Val-Gly-His-Leuψ[CH2NH]Leu-NH2 (Litorin analog) (peptide)”, the bombesin-stimulated [3H]Thymidine uptake, IC50 in experiment [1] was 28 nM. Also, the IC50 in experiment [2] came out at 23.5 nM.

Turning to GNHWAVGHLL-NH2 (also: reduced bond ψ[CH2NH] between Leu9 and Leu10) [BIM-26092, Gly-Asn-His-Trp-Ala-Val-Gly-His-Leuψ[CH2NH]Leu-NH2 (Neuromedin C analog)], in experiment [4], the IC50 came out at 242 nM. This molecule also registered a bombesin-stimulated [3H]Thymidine uptake, IC50 in experiment [1] of 466 nM.

For FQWAVGHL (D-Phe at 1; C-terminal amide) [BIM-26122, D-Phe-Gln-Trp-Ala-Val-Gly-His-Leu-NH2 (Litorin analog)], the IC50 in experiment [4] came out at 5.9 nM.

B1: BIM-26100, pGlu-Gln-Trp-Ala-Val-Gly-His-Pheψ[CH2NH]Leu-NH2 (Litorin analog) (peptide)
peptide: EQWAVGHFL
modifications: pGlu at 1 (written E); reduced peptide bond ψ[CH2NH] between Phe 8 and Leu 9; C-terminal amide
B1 registered an IC50 in experiment [4] of 23 nM. Moreover, in experiment [1], the bombesin-stimulated [3H]Thymidine uptake, IC50 was found to be 26 nM.

Consider [pGlu]QWAVGHLL-NH2 (also: reduced bond ψ[CH2NH] between Leu8 and Leu9) [BIM-26101, pGlu-Gln-Trp-Ala-Val-Gly-His-Leuψ[CH2NH]Leu-NH2 (Litorin analog)], for which the IC50 in experiment [4] worked out at 118 nM. The same molecule showed a bombesin-stimulated [3H]Thymidine uptake, IC50 in experiment [1] of 296 nM.

B2: BIM-26120, pGlu-Gln-Trp-Ala-Val-Gly-His-Sta-NH2 (Litorin analog) (peptide)
peptide: [pGlu]QWAVGH[Sta]-NH2
SMILES: CC(C)C[C@H](NC(=O)[C@H](Cc1c[nH]cn1)NC(=O)CNC(=O)[C@@H](NC(=O)[C@H](C)NC(=O)[C@H](Cc1c[nH]c2ccccc12)NC(=O)[C@H](CCC(N)=O)NC(=O)[C@@H]1CCC(=O)N1)C(C)C)[C@@H](O)CC(N)=O
B2 registered an IC50 in experiment [4] of 150 nM. Moreover, the bombesin-stimulated [3H]Thymidine uptake, IC50 in experiment [1] turned out to be 165 nM.

For the origin of these results see patent US20050026827A1, “Octapeptide bombesin analogs” (Societe de Conseils de Recherches et d'Applications …, priority 1987, published 2005).
